Laboratory results: patent US20090047272

Target: G-actin in human serum

Protein | Average T50 (min) 50% DNA hydrolysis in human serum | Time T50 (min) 50% DNA hydrolysis in human serum
wild-type human DNase I (protein) LKIAAFNIQTFGETKMSNATLVSYIVQILSRYDIALVQEVRDSHLTAVGKLLDNLNQDAPDTYHYVVSEPLGRNSYKERYLFVYRPDQVSAVDSYYYDDGCEPCGNDTFNREPAIVRFFSRFTEVREFAIVPLHAAPGDAVAEIDALYDVYLDVQEKWGLEDVMLMGDFNAGCSYVRPSQWSSIRLWTSPTFQWLIPDSADTTATPTHCAYDRIVVAGMLLRGAVVPDSALPFNFQAAYGLSDQLAQAISDHYPVEVMLK | 28 min | 26; 28; 30
actin-resistant version of DNase I, arDNase (+1), substitution A114R (protein) LKIAAFNIQTFGETKMSNATLVSYIVQILSRYDIALVQEVRDSHLTAVGKLLDNLNQDAPDTYHYVVSEPLGRNSYKERYLFVYRPDQVSAVDSYYYDDGCEPCGNDTFNREPRIVRFFSRFTEVREFAIVPLHAAPGDAVAEIDALYDVYLDVQEKWGLEDVMLMGDFNAGCSYVRPSQWSSIRLWTSPTFQWLIPDSADTTATPTHCAYDRIVVAGMLLRGAVVPDSALPFNFQAAYGLSDQLAQAISDHYPVEVMLK | 3 min | 2; 3; 4
